Data as given in the supplement of paper PMC12764529.
± gives the half width of the 95% confidence interval.

Columns and labels:
[1] = folding stability dG unfold from trypsin proteolysis; higher = more stable
Method in brief: (§1)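 K50 was inferred by Bayesian fitting of sequencing counts obtained after protease digestion of designed mini-proteins. Unfolding free energy was derived by comparison with a sequence-predicted unfolded-state K50 and a shared folded-state K50, for each protease or both combined. The mini-proteins were under 80 residues, had no cysteine, were carried in a PA-tagged cDNA display construct, and were kept only if AlphaFold2 dimer inter-PAE exceeded 15.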

[2] = folding stability dG unfold from chymotrypsin proteolysis; higher = more stable
Method in brief: as §1

[3] = folding stability dG unfold (combined trypsin and chymotrypsin); higher = more stable
Method in brief: as §1

Sequence | folding stability dG unfold [1] | folding stability dG unfold [2] | folding stability dG unfold [3]
SAGGSAGGKGKLVDEPPIRDPNNGKDVWAFIMDPDGRMEVYDPNEIEEIPLKPGQIMIFTPEDLSAGGSAGG [r6_627_TrROS] | 0.757 ± 0.069 kcal/mol | 0.168 ± 0.34 kcal/mol | 0.648 ± 0.16 kcal/mol
TTKTYTTPVIKKMTVTFDKTEGNEATLTITATLPDGTPVTLPFPLTLETGKLDPAVVEAAIKAAVATAIAQS [r1_124_JUSTAS] | 0.892 ± 0.07 kcal/mol | 1.37 ± 0.12 kcal/mol | 1.23 ± 0.2 kcal/mol
SAETRTLTIRIPAKDLTPEQIRALLRALLPEDATITEVRIERDEDGYITVTIVVTNPDGSKQEIRLVFPSAG [r14_30_TrROS_Hall] | 2.527 ± 0.024 kcal/mol | 2.64 ± 0.031 kcal/mol | 2.6 ± 0.085 kcal/mol
SAGGSAGGSAGGRKRYRFKPGQRLEPRLVFRLKLRLELERDEDGNLSLKLELEIEEVRLLSAGGSAGGSAGG [r7_572_TrROS_Hall] | 3.35 ± 0.13 kcal/mol | 4.41 ± 0.098 kcal/mol | 4.09 ± 0.29 kcal/mol
SAGGLGTDSTVPTLTLSVPVLVPTADGSPRELTVRVTIRAPVRLNPPTGELEIGDVEVSVEVFDPSLLSAGG [r13_312_TrMRF] | 3.03 ± 0.11 kcal/mol | 3.73 ± 0.11 kcal/mol | 3.37 ± 0.13 kcal/mol
SAGGSAGGSAGMFVERTLEITFVRPPNGPGPEEVEKRAKELQEKNPHLNVKVKVVDPSEASAGGSAGGSAGG [r17_220_JUSTAS] | 0.669 ± 0.086 kcal/mol | 0.795 ± 0.1 kcal/mol | 0.699 ± 0.26 kcal/mol
SAGGSAGGSAGGLAPAPDGSPVAVLLDDGRVVVFDPETAELYVAFVTPDSVRVVPLPLDLSAGGSAGGSAGG [r7_527_TrMRF] | -0.565 ± 0.071 kcal/mol | 0.656 ± 0.038 kcal/mol | 0.332 ± 0.053 kcal/mol
SAGGSAMSVTLTFEEPVGPGVPVKVTVTVERFPDSVKVTVTTTFPDGTVTTTPVSLKLEPAAVDLLSAGGSA [r15_263_JUSTAS] | 2.44 ± 0.11 kcal/mol | 2.694 ± 0.022 kcal/mol | 2.54 ± 0.082 kcal/mol
SAGGSAGGSMIVVPESVSPEEAEATARQVAQELGISPDTPLEVEIKEVKTGENSVYEIRVTLRSAGGSAGGS [r12_252_JUSTAS] | 0.097 ± 0.056 kcal/mol | 0.19 ± 0.13 kcal/mol | 0.199 ± 0.092 kcal/mol
SAGGSAGGSAGKKKKKKKKKPPVTLTVEIEIEINGKKYIAKKKVKLNKDGKLEVEVEIYPSAGGSAGGSAGG [r11_555_TrROS_Hall] | 2.4 ± 0.37 kcal/mol | 3.23 ± 0.065 kcal/mol | 3.13 ± 0.41 kcal/mol
SAGGLKIPVGSAEDALKAFEAIEEPVLVRTKDRKFVRELKLEDIKELVEKGVEFEFVLPSELPEEERKESAG [r5_677_TrMRF] | 0.574 ± 0.07 kcal/mol | 0.573 ± 0.21 kcal/mol | 0.566 ± 0.39 kcal/mol
ERDLIVIAGDDLTPEQLRELLEELGFRPEDAEIFREGDALLIVLPDAVILVVRPPPLPVLSEDDPELLEEAS [r1_57_TrMRF] | 3.22 ± 0.16 kcal/mol | 3.28 ± 0.23 kcal/mol | 3.19 ± 0.2 kcal/mol
SVIKLPIWYPNSPAEQAEEMVQSLARKFMDKYGLKIDVEVETRRDPDGKPRWVRIEATIQYRDEDGKPIFSA [r9_21_TrROS] | 1.81 ± 0.084 kcal/mol | 2 ± 0.073 kcal/mol | 2.07 ± 0.26 kcal/mol
MTLLIPLPPAFPDLTPEQVLDLLRELFLSPDEEATAEENPETGSVTVTVRRGDEEYVFTFYPDGYLVLEPGS [r1_131_TrMRF] | 2.85 ± 0.04 kcal/mol | 2.799 ± 0.016 kcal/mol | 2.83 ± 0.04 kcal/mol
SAGGSAGGSSYTTSTATDPNADVTTTTTTYPDSIVTPVWDPRTGKVVETVTTTPDGTTTTVAASAGGSAGGS [r12_563_JUSTAS] | 0.543 ± 0.068 kcal/mol | 0.0262 ± 0.17 kcal/mol | 0.289 ± 0.14 kcal/mol
SAGGSMKVEVTVTETSTLGDGTRTYTVAVLIDGTPLTFTFPFTSEEEFREAVEEWAKERGVEITLTPSSAGG [r13_750_JUSTAS] | 3.7 ± 0.084 kcal/mol | 4.54 ± 0.049 kcal/mol | 4.25 ± 0.14 kcal/mol
SAGGSMKIKVEYEELPNGKMVIRIDIPPEENNMTPEQVETIAKEIAEEFPNVKVETTPGSIWIRVPSAGGSA [r2_256_TrROS] | 1.38 ± 0.1 kcal/mol | 1.21 ± 0.2 kcal/mol | 1.24 ± 0.16 kcal/mol
SMPPGERYRMTMKFPDGKKITLEMNPGGWWRIKVENKNGKPQHQQPIPPDNPQELAENFGIDKVTDVEPVSA [r9_1107_TrROS] | 2.01 ± 0.095 kcal/mol | 2.02 ± 0.2 kcal/mol | 2.05 ± 0.17 kcal/mol
SAGGVREIAKRIANFAREHGYEVEVDEIEPPPNGYVVIDAKIQMRDGGKPVHEFPISIRFPPPPGDPSAGGS [r8_102_TrROS] | 3.98 ± 0.43 kcal/mol | 3.51 ± 0.16 kcal/mol | 3.86 ± 0.68 kcal/mol
SAGGITIELRNPNGEPVEVHLKRDPDGTLELSVHMRGPEGRHYMVTMTIKVKNNGIEIDKFDNWYPLPSAGG [r13_451_TrROS] | 3.11 ± 0.092 kcal/mol | 4.16 ± 0.084 kcal/mol | 3.79 ± 0.11 kcal/mol
NWYIDIDEIKEAINDAPPGDEVELPFKFYDPDDGQKFKFRVTVEVNPNGKLTSVRIQHPGSGKPHAEINLKS [r1_165_TrROS] | 0.636 ± 0.07 kcal/mol | 1.25 ± 0.13 kcal/mol | 0.982 ± 0.11 kcal/mol

Sequence | folding stability dG unfold [1] | folding stability dG unfold [2] | folding stability dG unfold [3]
SAKLIRDLLRDHGFPIKNIDVQKNPNGKTYISIEIKMYTPEYKNDEGRPKPRPVEMTATFPADDLLDALSAG [r14_16_TrROS] | 0.91 ± 0.16 kcal/mol | 0.507 ± 0.25 kcal/mol | 0.676 ± 0.25 kcal/mol
SAGGSAGGSAGWGWISVSITFEMEHYDEDGKPKHEHPMPMTIQIPVVRVDPKNGKLEPMPSAGGSAGGSAGG [r17_413_TrROS] | 1.83 ± 0.095 kcal/mol | 2.58 ± 0.065 kcal/mol | 2.24 ± 0.2 kcal/mol
SAGGSAGGSAGVPVVVRTVTGPEGGYVVVEFPNLKKVVLLPFTDGKPRPVVFDTDEVLKLVSAGGSAGGSAG [r3_426_TrMRF] | 1.04 ± 0.04 kcal/mol | 0.722 ± 0.083 kcal/mol | 0.825 ± 0.093 kcal/mol
SAGGSAGGSMTIVDPETGETLEIIEVKKNEDGKESFIFRISSPKPRYFIIDKDGNIRVIEKKDSAGGSAGGS [r12_205_TrROS_Hall] | 1.36 ± 0.022 kcal/mol | 1.23 ± 0.2 kcal/mol | 1.34 ± 0.074 kcal/mol
SAGGSAGGSAKMVIVNITLKNKDGKEFTISIEADPSVIKNIIKKLFNAKINKIEIYPLSEALSAGGSAGGSA [r18_107_TrMRF] | 2.49 ± 0.11 kcal/mol | 2.21 ± 0.08 kcal/mol | 2.28 ± 0.15 kcal/mol
SAGGSKTVTLTVTVEVNGKTFTVTVTLTYDEETNKLTITVEISAKSEEERERARELVEKLLKELLSSAGGSA [r2_259_TrROS_Hall] | 3.83 ± 0.12 kcal/mol | 4.95 ± 0.094 kcal/mol | 4.79 ± 0.13 kcal/mol
MVLKVTIEITVTHPANPGKTEKLTIVVEAPTLEEALAAALEEIRRRLGLPPGAKVTVKVTVELVELPEEDLS [r1_149_TrROS_Hall] | 4.5 ± 0.18 kcal/mol | 5.63 ± 0.18 kcal/mol | 5.99 ± 0.5 kcal/mol
SAGMKYTFKILVKADSPEEAIETAKKLVEKWLKENFPELPEGVKIKEIKVEPLPDDYYLVTITVEFDPESAG [r5_320_TrMRF] | 4.2 ± 0.19 kcal/mol | 5.51 ± 0.091 kcal/mol | 5.49 ± 0.1 kcal/mol
SAGGSAGGSKLTIMVKMDSAEDAEEEARSLLKELGIKPGMKEVKVSMFPRGNEYYAHVEIKFKSAGGSAGGS [r12_7_TrROS] | 0.672 ± 0.038 kcal/mol | 0.759 ± 0.15 kcal/mol | 0.776 ± 0.12 kcal/mol
SAGGSAGGSAGGMTLVIVVETEEQAEALAEELKKKGFEVTVERDEETNLLVVTVKVKPPPSAGGSAGGSAGG [r7_623_TrROS_Hall] | 4.04 ± 0.25 kcal/mol | 3.36 ± 0.11 kcal/mol | 3.66 ± 0.12 kcal/mol
SAGGGTFYLVVKVEKVAPNPETGELVEERLELVIPGKAPNAVSEEDLKAFVDALLPLGYKVEVELREGSAGG [r13_926_TrMRF] | 1.91 ± 0.12 kcal/mol | 2.07 ± 0.12 kcal/mol | 2.07 ± 0.2 kcal/mol
SAGGSAGGSIWIPPNHSVEEFAKEIQDKGNAEVKRDEPGWYKIKSKNNKPKKRIRFQANPEQFSAGGSAGGS [r20_236_TrROS] | -0.163 ± 0.5 kcal/mol | 0.24 ± 0.53 kcal/mol | -0.046 ± 0.43 kcal/mol
SAGGMTTTTTFDGPTDEAFDLPSGVKVEPEPATGGYRVELPPGREVEVTVERSTDPGTVTWTFTFKESAGGS [r16_122_JUSTAS] | 0.3 ± 0.036 kcal/mol | 0.531 ± 0.16 kcal/mol | 0.544 ± 0.078 kcal/mol
SAGGSAGGSAGHMVKVKITKSKGGSSLPLEEKEIELDIDEEKLEELKEEAKKKGYTVEIESAGGSAGGSAGG [r17_18_JUSTAS] | 0.0424 ± 0.11 kcal/mol | 0.0362 ± 0.15 kcal/mol | -0.0397 ± 0.26 kcal/mol
SAGGLPPEIKVEISFTPDPATGKWRGTVTAFDPVTGKTVTVPVTSDTPEELRARLEAAAAAVAAALASAGGS [r8_480_JUSTAS] | 3.03 ± 0.098 kcal/mol | 4.36 ± 0.12 kcal/mol | 4.08 ± 0.14 kcal/mol
SAGGSAGGSKPIVAPVSVEDLTLEGLKALVDSHPEGEVPIFVTRSDGKPLVITVLPDGELSLDSAGGSAGGS [r12_1054_TrMRF] | 0.17 ± 0.019 kcal/mol | -1.49 ± 0.31 kcal/mol | -0.318 ± 0.076 kcal/mol
SAGGMLKIEVTVPAEYPEQAEEIAAEIRDLLEAGPYVKVLKVEIEPTEDTVRVTVVVEIEFDSPEELISAGG [r13_39_TrMRF] | 1.36 ± 0.17 kcal/mol | 2.1 ± 0.06 kcal/mol | 1.78 ± 0.21 kcal/mol
SAGGSAGGSAGGMEIREVEVTFVPPDGTTTTRKVLATSEEEAKAILEEELPPDWEIILRSAGGSAGGSAGGS [r10_145_JUSTAS] | -0.122 ± 0.11 kcal/mol | 0.831 ± 0.034 kcal/mol | 0.55 ± 0.082 kcal/mol
SAGMIKVEVVEKDEKTKEWKVVETKTIPVKPGEKPTVEELAKKLKEKGYEVRIEKTKDGTLKIYVIKKKSAG [r5_269_TrROS_Hall] | 3.33 ± 0.2 kcal/mol | 4.08 ± 0.061 kcal/mol | 3.78 ± 0.16 kcal/mol
SAGGPFDDFEPLGTIPFKVNGMEIEIQIWRMKNPGHYMVDIRNPGFGIPVMYWVPPGDIEEILDLIRSAGGS [r8_469_TrROS] | 2.22 ± 0.078 kcal/mol | 3.1 ± 0.059 kcal/mol | 2.7 ± 0.14 kcal/mol
SAGGSAGGSAVYRTEDGRWVLVVEEVDGELTVHVYRRVDGRWELVETYPLEDLSPEARAALSAGGSAGGSAG [r3_241_TrROS_Hall] | 1.48 ± 0.025 kcal/mol | 2.33 ± 0.029 kcal/mol | 2.03 ± 0.053 kcal/mol
